Stoichiometry (OPN:Factor H) data for one substance are collected here from patent publication US6995018.

The assay has as its target human complement Factor H (human) (UniProt P08603). Briefly: steady state fluorescence, titration of purified human Factor H with rOPN.

Chain of human complement Factor H (human) (P08603 19-1231 limits assumed): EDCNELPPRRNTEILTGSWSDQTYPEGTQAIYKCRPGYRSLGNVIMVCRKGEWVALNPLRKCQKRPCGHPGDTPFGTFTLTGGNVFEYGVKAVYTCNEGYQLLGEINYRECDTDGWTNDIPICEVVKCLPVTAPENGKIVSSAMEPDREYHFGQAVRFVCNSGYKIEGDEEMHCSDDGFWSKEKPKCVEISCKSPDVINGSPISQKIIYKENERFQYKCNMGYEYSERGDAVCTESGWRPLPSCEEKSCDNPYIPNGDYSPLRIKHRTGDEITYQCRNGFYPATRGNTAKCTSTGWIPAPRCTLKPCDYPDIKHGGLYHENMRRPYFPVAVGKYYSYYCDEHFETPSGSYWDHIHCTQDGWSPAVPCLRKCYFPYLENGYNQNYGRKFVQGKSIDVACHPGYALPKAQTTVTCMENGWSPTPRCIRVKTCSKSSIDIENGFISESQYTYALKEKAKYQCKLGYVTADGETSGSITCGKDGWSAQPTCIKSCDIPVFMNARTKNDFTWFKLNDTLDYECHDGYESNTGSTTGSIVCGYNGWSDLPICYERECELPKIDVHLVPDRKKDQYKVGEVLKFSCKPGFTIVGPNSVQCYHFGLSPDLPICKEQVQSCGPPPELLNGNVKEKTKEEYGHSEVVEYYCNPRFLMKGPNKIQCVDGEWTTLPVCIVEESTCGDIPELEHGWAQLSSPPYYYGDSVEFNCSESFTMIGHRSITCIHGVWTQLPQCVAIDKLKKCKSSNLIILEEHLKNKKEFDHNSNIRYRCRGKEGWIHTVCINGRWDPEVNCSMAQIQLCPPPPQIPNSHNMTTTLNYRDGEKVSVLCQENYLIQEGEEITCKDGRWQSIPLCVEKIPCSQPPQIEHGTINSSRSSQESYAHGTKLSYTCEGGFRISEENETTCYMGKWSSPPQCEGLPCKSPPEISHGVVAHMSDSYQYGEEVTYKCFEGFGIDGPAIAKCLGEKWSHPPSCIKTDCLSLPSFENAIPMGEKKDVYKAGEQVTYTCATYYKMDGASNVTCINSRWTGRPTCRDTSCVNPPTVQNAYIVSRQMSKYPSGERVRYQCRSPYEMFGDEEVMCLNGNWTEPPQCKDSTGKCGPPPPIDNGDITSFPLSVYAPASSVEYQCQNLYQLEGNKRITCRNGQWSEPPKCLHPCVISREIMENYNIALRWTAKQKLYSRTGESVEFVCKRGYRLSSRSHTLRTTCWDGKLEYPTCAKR

Substance “recombinant osteopontin (rOPN) (from UniProt P10451 17-300) (ligand)” gave a stoichiometry (OPN:Factor H) of 1 mol/mol.
